Key:
[1] = biological target: T1, MstX (NCgl1216) (Corynebacterium glutamicum, UniProt Q8NR03); assay: Mtr-coupled NADPH oxidation at […] nm (thiol transferase assay); type: biochemical; conditions: 100 mM MSH, 300 μM NADPH, 5 μM Mtr, 50 mM potassium phosphate pH 7.6, 25 °C
T1 construct: gene Cgl1264; full length, 359 residues, 40,619 Da; pET28a His6 fusion from E. coli BL21(DE3), tag cleaved; monomer

[2] = tested on: CC(C)(C)OO; assay: purified protein; conditions: 500 μM MSH, 4 μM Mtr, 250 μM NADPH, 1 mM EDTA, 50 mM Tris-HCl pH 7.5
[3] = biological target: T2, MstX (NCgl1216) (Corynebacterium glutamicum, UniProt Q8NR03, C262S); assay: MALDI-TOF MS of S-mycothiolated protein; type: binding; conditions: covalent; mixed disulfide at Cys67; formed with H2O2
T2 construct: gene Cgl1264

[4] = tested on: CC(C)(OO)c1ccccc1; assay: purified protein; conditions: 500 μM MSH, 4 μM Mtr, 250 μM NADPH, 1 mM EDTA, 50 mM Tris-HCl pH 7.5
[5] = substrate: O=C1O[C@H]([C@@H](O)CO)C(=O)C1=O; assay: purified protein; type: biochemical, Corynebacterium glutamicum; conditions: 100 mM MSH, 300 μM NADPH, 5 μM Mtr, 50 mM potassium phosphate pH 7.6, 25 °C

`OCCSSCCO` [HED] was tested, and the Km [1] was 192 ± 30 µM.

“MstX (NCgl1216) (Corynebacterium glutamicum ATCC 13032)” showed a Km [2] of 301.3 ± 46.62 µM and a kcat [2] of 0.135 ± 0.006 s⁻¹.

For `CC(=O)N[C@@H](CS)C(=O)NC1[C@@H](O[C@@H]2[C@H](O)[C@H](O)[C@@H](O)[C@H](O)[C@H]2O)O[C@H](CO)[C@@H](O)[C@@H]1O` (stereo partly drawn) [MSH], the “MALDI-TOF MS of S-mycothiolated protein” value [3] was “Pure S-mycothiolated MstX:C262S were confirmed by Matrix-Assisted Laser Desorption/Ionization Time of Flight Mass Spectrometry”.

B1: MstX (NCgl1216) (Corynebacterium glutamicum ATCC 13032) (protein)
chain: MANTSSDWAGAPQNASADGEFVRDTNYIDDRIVADVPAGSEPIAQEDGTFHWPVEAGRYRLVAARACPWAHRTVITRRLLGLENVISLGLTGPTHDVRSWTFDLDPNHLDPVLQIPRLQDAYFNRFPDYPRGITVPALVEESSKKVVTNDYPSITIDFNLEWKQFHREGAPNLYPAELREEMAPVMKRIFTEVNNGVYRTGFAGSQEAHNEAYKRLWVALDWLEDRLSTRRYLMGDHITEADIRLYPTLVRFDAVYHGHFKCGRNKITEMPNLWGYLRDLFQTPGFGDTTDFTEIKQHYYITHAEINPTRIVPVGPDLSGFATPHGREKLGGSPFAEGVTLPGPIPAGEEVKNPEPFQK
notes: full length, 359 residues, 40,619 Da; pET28a His6 fusion from E. coli BL21(DE3), tag cleaved; monomer
B1 was tested, and the Km [4] was 328.1 ± 33.27 µM, the kcat [4] was 0.153 ± 0.005 s⁻¹ and the Km [5] was 1115 ± 252 µM. For the same molecule, the kcat [5] was 573 ± 44.3 s⁻¹ and the kcat/Km [5] was 571000 ± 410000 M⁻¹ s⁻¹.
